Data published in article PMC5007201.

Target: human dynein heavy chain with an N-terminal GFP, within the GFP-dynein complex (human) (UniProt Q14204)
Assay: single-molecule photobleaching step counting

stoichiometry N: 2
Substance: human dynein heavy chain with an N-terminal GFP, within the GFP-dynein complex, Q14204 1-4646
